From PMC2172305

Target: Crk (UniProt P46108)
Assay: anti-Flag co-IP, anti-HA blot
Conditions: reference: cells infected with noninvasive Shigella; sites Y421,Y466,Y482

## cortactin (from UniProt Q60598) cells infected with invasive Shigella
  fold change: stronger; reference 1
